According to US20200308299A1, “ANTI-GPC-1 ANTIBODY” (National University Corporation Kochi University, priority 2017, published 2020):

B1: clone 01a033 (antibody)
heavy: QVQLKQSGPELVKPGASVKISCKASGYSFTGYYMHWVKQSPEKSLEWIGEINPSTGDTTYNQKFKAKATLTVDKSSSTAYMQLKSLTSEDSAVYYCAREKRDDGVFAYWGQGTLVTVSSAKTTAPSVYPLAPVCGDTTGSSVTLGCLVKGYFPEPVTLTWNSGSLSSGVHTFPAVLQSDLYTLSSSVTVTSSTWPSQSITCNVAHPASSTKVDKKIEPRGPTIKPCPPCKCPAPNLLGGPSVFIFPPKIKDVLMISLSPIVTCVVVDVSEDDPDVQISWFVNNVEVHTAQTQTHREDYNSTLRVVSALPIQHQDWMSGKEFKCKVNNKDLPAPIERTISKPKGSVRAPQVYVLPPPEEEMTKKQVTLTCMVTDFMPEDIYVEWTNNGKTELNYKNTEPVLDSDGSYFMYSKLRVEKKNWVERNSYSCSVVHEGLHNHHTTKSFSRTPGK
light: DIVMSQSPKSMSMSVGERVALSCKASENVGTYVSWYQQKPEQSPKLLIYGASNRYTGVPDRFTGSGSATDFTLTISSVQAEDLADYYCGQSYSYPLTFGAGTKLELKRADAAPTVSIFPPSSEQLTSGGASVVCFLNNFYPKDINVKWKIDGSERQNGVLNSWTDQDSKDSTYSMSSTLTLTKDEYERHNSYTCEATHKTSTSPIVKSFNRNEC
B2: GPC1 ADC (conjugate)
heavy: B1 heavy
light: B1 light

Legend:
TE8 cells = assay: ADC assay combining anti-GPC-1 antibody and MMAF binding secondary antibody, TE8 cells; format: cell-based; details: primary antibody plus MMAF secondary antibody
[1] = system: TE8, HeLa, ME180, BxPC3, and T3M4 cell strains; assay: Internalization assay on GPC1 ADC (01a033), various GPC1 positive cell strains; format: cell-based; details: esophageal, pancreatic and cervical cancer derived cell strains, 37° C.
Method: Detection was performed on cells treated with GPC1 ADC (01a033) MMAF with anti-GPC1 mAb (biotin-labeled 02b006) and PE-labeled streptavidin.
TE8, HeLa, ME180, BxPC3, and T3M4 cell strains were detached and collected from a 10 cm plate using 0.02% EDTA. Cells were suspended in RPMI1640+10% FBS+100 U/ml penicillin+100 μg/ml streptomycin, and two 1.5 ml tubes were created at 1.0×10^6 cells/0.9 ml. To lower the internalization activity, the tubes were left standing on ice for 1 hour. 1 mg/ml of GPC1 ADC (01a033) MMAF was diluted to 24 μg/mL (160 nM) with ice-cooled RPMI1640+10% FBS+100 U/ml penicillin+100 μg/ml streptomycin. 100 μl of the ADC was added and suspended in the cell suspension and incubated on ice for 30 minutes to stain the antigens on the cell surface. After 30 minutes, the cell suspension was dispensed into 7 tubes each at 100 μl each. The cell suspension was separated into 4° C. incubation group and 37° C. incubation group in 14 tubes. The incubation times were 0.0 h, 1 h, 2 h, 3 h, 4 h, 6 h, 12 h, and 24 h. After reaching the incubation time, the cells were centrifuged at 1500 rpm at 4° C. for 5 minutes to remove the supernatant. The cells were washed with 100 μl of ice cooled PBS+0.2% BSA and subjected to centrifugation to wash the cells. Washing operation was performed three times in total. […]

[2] = system: TE4, TE5, TE6, TE8, TE9, TE10, TE11, TE14, TE15, HeLa, ME180; assay: In vitro antitumor effect of unlabeled antibody (CellTiter-Glo); format: cell-based; details: 6 days
Method: 2000 cells were added to a 96-well plate at 90 μl. The cells were cultured overnight at 37° C. in a 5% CO2 incubator. The next day, 10 μl of an unlabeled primary antibody concentrated […] relative to the final concentration was added to each well, so that the total amount was 100 μl. The cells were cultured for 6 days at 37° C. in a 5% CO2 incubator. The cell viability was measured by using a CellTiter-Glo Luminescent Cell Viability Assay reagent to detect the amount of ATP.

TE14 cell strain = assay: In vivo antitumor effect of unlabeled anti-GPC1 antibody, TE14 graft in SCID mice; set-up: species or system mouse
Method: Specifically, 2.0×10^6 cells of TE14 cell strain were subcutaneously grafted into female SCID mice (6 week old, n=9). When the tumor size reached about 100 mm^3 on about day 10 to 14 after grafting, administration of control mouse IgG2a (sigma, M7769) and anti-GPC1 antibody 01a033 each at 10 mg/kg was started, which were intraperitoneally administered on day 0, day 3, day 7, day 10, day 14, and day 17, with the day starting the administration considered 0 day. The tumor volume was measured on day 0, day 3, day 7, day 10, day 14, day 17, day 21, day 24, day 28, and day 31.

LK2 cells = assay: In vitro ADC assay, LK2 cells; format: cell-based, human; details: 144 hours; LK2 hardly express GPC1
Method: (§1) Preparation of a conjugate of mouse anti-Glypican-1 mAb (01a033), mouse IgG2a (biolegend #400224) as a control, and mc-vc-PAB-MMAF was commissioned to MORADEC. An anticancer agent was conjugated to a cysteine residue via a cleavable linker. The DAR (drug-antibody ratio) was as follows. GPC1-CL-MMAF DAR=3.8, mouse IgG2a-CL-MMAF DAR=4.1.
(§2) (1) The cells were seeded on Thermo Fisher Scientific's 96-well white plate (model no.: 136101) (90 μl cell suspension). RPMI1640+10% FBS+100 U/ml penicillin+100 μg/ml streptomycin was used as the medium. The cells were seeded in 60 wells, and 100 μL of medium was added to 36 wells, and cultured in a 5% CO2 incubator at 37° C. (2) The next day, 10 μL of ADC was added to the cells (total amount: 100 μL). (3) After 144 hours of culture, a CellTiter-Glo™ Luminescence Cell Viability Assay reagent (Promega) was added and mixed at 100 μL/well. (4) Measurements were taken with a plate reader. (5) Analysis was conducted with GraphPad Prism 6.
(§3) The IC50 values were calculated from the following equation (Hossain M M, Hosono-Fukao T, Tang R, Sugaya N, van Kuppevelt T H, Jenniskens G J, Kimata K, Rosen S D, Uchimura K (2010) Direct detection of HSulf-1 and HSulf-2 activities on extracellular heparan sulphate and their inhibition by PI-88. Glycobiology 20(2): 175-186.)
(§4) IC50=10^(Log [A][B]×(50−C)/(D−C)+Log [B]) […]

T3M4 cells = assay: In vitro ADC assay, T3M4 cells; format: cell-based, human; details: T3M4, 144 hours
Method: as §1, §2, §3, §4

HeLa cells = assay: In vitro ADC assay, HeLa cells; format: cell-based; details: 144 hours
Method: as §1, §2, §3, §4

ME180 cells = assay: In vitro ADC assay, ME180 cells; format: cell-based; details: ME180, 144 hours
Method: as §1, §2, §3, §4

Row | Molecule | antitumor effect on TE8 (TE8 cells) | internalization activity [1] | antitumor effect in vitro [2] | ADCC activity (TE14 cell strain; concluded from the lack of in vivo antitumor effect) | antitumor effect (tumor volume, tumor weight day 31) (TE14 cell strain; unlabeled antibody 10 mg/kg ip day 0, 3, 7, 10, 14, 17) | antitumor effect against LK2 cells (LK2 cells) | effect of suppressing cell growth (T3M4 cells) | effect of suppressing cell growth (HeLa cells) | effect of suppressing cell growth (ME180 cells)
1 | B1 | particularly potent antitumor effect | high internalization activity | not observed against any cell strain | does not have ADCC activity | no antitumor effect |  |  |  | 
2 | B2 |  |  |  |  |  | hardly exhibited | exhibits an effect of suppressing cell growth | exhibits an effect of suppressing cell growth | exhibits an effect of suppressing cell growth
